Reference: PMC3277882, “Structure and Kinetic Stability of the p63 Tetramerization Domain” (Journal of Molecular Biology, 2012)
Blank lines part the entries; values can stand above or below the molecule they belong to.

Tests used:
[1] = molecular target: human p63 full-length tetramerization domain variant, p63(356–411) (human); test: native MS; nESI-MS of subunit exchange: equal amounts of 12C-14N and 13C-15N protein mixed, 10 μM each (monomer concentration), 500 mM ammonium acetate (pH 6.9), 37 °C; half-life of tetramer dissociation from kinetic modeling
[2] = molecular target: human p63 tetramerization domain lacking the H2 helix, p63(359–388) (human); test: crystal structure; p63(359–388) SeMet, sitting drop at 17 °C, 30% polyethylene glycol 400, 0.1 M Hepes (pH 7.5), 0.2 M Mg chloride; space group P1, one tetramer in the asymmetric unit; 1.9 Å
[3] = molecular target: human p63 tetramerization domain, p63(359–402) (human); test: crystal structure; p63(359–402), sitting drop at 17 °C, 10% polyethylene glycol 8000, 0.1 M Hepes (pH 7.5), 0.2 M Ca acetate; space group P422, one monomer in the asymmetric unit; 2.15 Å
[4] = molecular target: the molecule itself; test: native MS; nESI-MS of subunit exchange: equal amounts of 12C-14N and 13C-15N protein mixed, 10 μM each (monomer concentration), 500 mM ammonium acetate (pH 6.9), 37 °C; half-life of tetramer dissociation from kinetic modeling
[5] = molecular target: the molecule itself; test: as above; remark: listed apart in the source

half-life of the tetramer, t1/2 [1]: 7 min
stoichiometry N [1]: 4
Molecule: human p63 full-length tetramerization domain variant, p63(356–411) (domain or fragment)

stoichiometry N [2]: 4
Molecule: human p63 tetramerization domain lacking the H2 helix, p63(359–388) (domain or fragment)

stoichiometry N [3]: 4
Molecule: human p63 tetramerization domain, p63(359–402) (domain or fragment)

B1: human p73 full-length tetramerization domain variant, p73(351–399) (domain or fragment)
chain: GSDEDTYYLQVRGRENFEILMKLKESLELMELVPQPLVDSYRQQQQLLQRP
notes: Gly-Ser dipeptide left at the N terminus by the cloning strategy (after thrombin cleavage); human p73 tetramerization domain, residues 351-399; In the subunit exchange experiment an unlabeled (12C-14N) and a uniformly 13C-15N labeled sample of the same construct were mixed; also called p73 tetramerization domain; not shown: His6, N-terminal, cleaved; lipoyl domain, N-terminal, cleaved
stoichiometry N [4]: 4
half-life of the tetramer, t1/2 [5]: 77 ± 5 min
